Experimental data published in publication PMC9259572.

Target: full-length epidermal growth factor receptor (EGFR) with a SNAP tag at the C-terminal position, embedded in a lipid bilayer nanodisc (UniProt P00533)

smFRET donor fluorescence lifetime of WT EGFR in nanodiscs (both bilayers) with 1 μM epigen; peak of the distribution: 1.5 ns
B1: Human epigen (ligand)
chain: AAVTVTPPITAQQGNWTVNKTEADNIEGPIALKFSHLCLEDHNSYCINGACAFHHELEKAICRCFTGYTGERCEHLTLTSYAVDSYEKYIAIGIGVGLLLSGFLVIFYCYIRKRCLKLKSPYNVCSGERRPL
